Data set [1] concerns A-beta 1-40 (fluorescein/Lys-biotin labelled synthetic peptide).
Data set [2] deals with T1, ANP (fluorescein/Lys-biotin labelled synthetic peptide).
T1 sequence: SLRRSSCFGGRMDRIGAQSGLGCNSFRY

Data set [3] relates to Angiotensin (fluorescein/Lys-biotin labelled synthetic peptide).
Data set [4] has as its system Bradykinin (fluorescein/Lys-biotin labelled synthetic peptide).
The test system of data set [5] is Endothelin-1 (average of the 1a and 1b isoforms).
For data set [6], the system named is GIP (fluorescein/Lys-biotin labelled synthetic peptide).
Sequence of GIP (fluorescein/Lys-biotin labelled synthetic peptide) (chain, as listed by the source): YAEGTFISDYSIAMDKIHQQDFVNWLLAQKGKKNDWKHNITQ
For data set [7], the system named is GLP-1 (fluorescein/Lys-biotin labelled synthetic peptide).
Sequence of GLP-1 (fluorescein/Lys-biotin labelled synthetic peptide) (chain, as listed by the source): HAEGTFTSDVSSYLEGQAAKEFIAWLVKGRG
Data set [8] concerns Glucagon (fluorescein/Lys-biotin labelled synthetic peptide).
Sequence of Glucagon (fluorescein/Lys-biotin labelled synthetic peptide) (chain, as listed by the source): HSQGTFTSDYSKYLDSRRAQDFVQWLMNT
For data set [9], the system named is Neurotensin (fluorescein/Lys-biotin labelled synthetic peptide).
Data set [10] deals with T2, Somatostatin 1-28 (fluorescein/Lys-biotin labelled synthetic peptide).
T2 sequence: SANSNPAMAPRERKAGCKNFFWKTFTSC

Sequence of A-beta 1-40 (fluorescein/Lys-biotin labelled synthetic peptide) (peptide, as listed by the source): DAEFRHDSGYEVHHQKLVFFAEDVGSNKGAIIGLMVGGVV

In general, kcat/KM refers to the second-order rate constant that governs catalysis at low substrate concentration. For HSA-Nep-G399V/G714K, the kcat/KM in data set [1] turned out to be 55000 M⁻¹ s⁻¹; in data set [2], 42000 M⁻¹ s⁻¹; in [3], 14000 M⁻¹ s⁻¹; in data set [4], 85 M⁻¹ s⁻¹; in data set [5], 62000 M⁻¹ s⁻¹; in [6], 130 M⁻¹ s⁻¹. Moreover, the kcat/KM in data set [7] was 36000 M⁻¹ s⁻¹; in data set [8], 88000 M⁻¹ s⁻¹; in data set [9], 2600 M⁻¹ s⁻¹; in data set [10], 3000 M⁻¹ s⁻¹. For the same substance, the ratio of kcat/KM, mutant vs wild type in data set [1] amounted to 4.2; in data set [2], 0.15; in [3], 0.012; in data set [4] it was 0.00017; in [5] it was 0.21; in [6], 0.28. For the same substance, the ratio of kcat/KM, mutant vs wild type in data set [7] amounted to 0.25; in data set [8] it was 0.35; in [9] it was 0.004; in data set [10], 0.0054.

The record behind these values is US20120237496.
